Results from PMC2927720.

Key:
[1] = target: rGrh (Grainyhead, full-length recombinant) (UniProt P13002-2 1-1032); assay: EMSA
[2] = target: rZld (Zelda, full-length recombinant) (UniProt Q9VWC6 1-1596); assay: EMSA
rZld (Zelda, full-length recombinant), sequence (Q9VWC6 whole entry): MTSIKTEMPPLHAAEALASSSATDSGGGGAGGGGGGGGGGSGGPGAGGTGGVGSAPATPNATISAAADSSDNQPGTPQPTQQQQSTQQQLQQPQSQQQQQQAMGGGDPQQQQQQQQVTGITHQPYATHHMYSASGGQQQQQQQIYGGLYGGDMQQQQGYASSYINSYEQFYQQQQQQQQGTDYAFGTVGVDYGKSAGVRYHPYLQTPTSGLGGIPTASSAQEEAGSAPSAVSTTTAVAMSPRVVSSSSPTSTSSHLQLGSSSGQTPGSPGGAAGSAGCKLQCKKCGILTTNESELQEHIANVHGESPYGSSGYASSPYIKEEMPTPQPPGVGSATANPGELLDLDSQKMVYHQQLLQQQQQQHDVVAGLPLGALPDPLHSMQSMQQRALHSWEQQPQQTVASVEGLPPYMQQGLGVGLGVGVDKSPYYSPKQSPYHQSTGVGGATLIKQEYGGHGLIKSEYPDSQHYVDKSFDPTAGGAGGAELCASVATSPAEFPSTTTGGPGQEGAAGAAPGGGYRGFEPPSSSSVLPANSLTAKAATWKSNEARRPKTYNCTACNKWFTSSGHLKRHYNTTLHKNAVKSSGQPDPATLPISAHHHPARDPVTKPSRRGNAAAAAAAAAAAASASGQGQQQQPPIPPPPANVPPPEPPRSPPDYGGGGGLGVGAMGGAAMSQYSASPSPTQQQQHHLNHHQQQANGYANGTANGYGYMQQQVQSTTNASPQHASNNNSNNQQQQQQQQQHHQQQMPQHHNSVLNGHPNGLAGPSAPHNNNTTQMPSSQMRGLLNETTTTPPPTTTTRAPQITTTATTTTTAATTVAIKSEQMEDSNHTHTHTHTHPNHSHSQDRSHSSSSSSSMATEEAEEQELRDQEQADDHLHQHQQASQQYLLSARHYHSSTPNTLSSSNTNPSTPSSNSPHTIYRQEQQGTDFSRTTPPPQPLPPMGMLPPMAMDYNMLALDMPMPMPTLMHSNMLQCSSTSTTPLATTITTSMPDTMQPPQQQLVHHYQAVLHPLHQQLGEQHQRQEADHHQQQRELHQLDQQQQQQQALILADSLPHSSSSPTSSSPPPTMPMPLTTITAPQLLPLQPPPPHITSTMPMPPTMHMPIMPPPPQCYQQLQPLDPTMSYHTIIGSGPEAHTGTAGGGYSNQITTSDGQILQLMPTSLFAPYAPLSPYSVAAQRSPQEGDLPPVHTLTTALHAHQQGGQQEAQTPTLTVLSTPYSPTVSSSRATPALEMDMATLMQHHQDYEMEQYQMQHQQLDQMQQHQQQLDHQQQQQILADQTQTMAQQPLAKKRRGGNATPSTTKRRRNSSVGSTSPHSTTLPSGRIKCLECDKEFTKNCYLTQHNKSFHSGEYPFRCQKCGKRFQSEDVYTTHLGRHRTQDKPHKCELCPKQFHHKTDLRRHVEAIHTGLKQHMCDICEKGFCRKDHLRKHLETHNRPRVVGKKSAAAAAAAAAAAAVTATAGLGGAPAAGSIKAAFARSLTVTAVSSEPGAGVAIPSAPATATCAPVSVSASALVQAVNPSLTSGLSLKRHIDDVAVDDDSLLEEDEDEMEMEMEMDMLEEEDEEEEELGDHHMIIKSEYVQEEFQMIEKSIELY

Binder | binding result [1] | binding result [2]
CAGGCAG probe (dsDNA) DNA 1: CTATTCAGGCAGACACTGTA DNA 2: TACAGTGTCTGCCTGAATAG | binds | 
CAGGTAG probe (dsDNA) DNA 1: CTATTCAGGTAGACACTGTA DNA 2: TACAGTGTCTACCTGAATAG | binds | binds
